Data on five molecules can be found in patent publication US20110014211A1 (INSTITUTE FOR ANTIBODIES, published 2011).

Assay [1] has as its target neuronal cell binding domain of the heavy chain C-terminal end (Hc, E. coli recombinant protein) (Clostridium botulinum, UniProt P0DPI0 871-1296). The assay can be described thus: immunoblotting of Hc after SDS-PAGE (denatured antigen). On the technique in general: In western blotting, separated proteins are transferred to a membrane and probed.
Assay [2] has as its target Neurotoxin heavy chain (H-chain) (Clostridium botulinum, UniProt P0DPI0 449-1296). The assay can be described thus: ELISA, IgG on immobilised H-chain. In general terms: ELISA stands for enzyme-linked immunosorbent assay.
The target of assay [3] is Neurotoxin light chain (L-chain) (Clostridium botulinum, UniProt P0DPI0 2-448). The assay can be described thus: ELISA, IgG on immobilised L-chain.

B1: NT-221 IgG type antibody (antibody, V domains shown)
VH: EVQLVESGPTLVKPTQTLTLTCTFSGFSLRTSGVAVGWIRQPPGKALEWLALIYWDDDKRYSPSLKSRLTITKDTSKNQVVLTMTNMDPVDTATYYCAHNTGTDLYFDWAFDYWGQGTLVTVSS
VL: QSVLTQPPSVSGAPGQRVTISCTGSSSNIGAGYDVHWYQQLPGTAPKLLIYGNSNRPSGVPDRFSGSKSGTSASLAITGLQAEDEADYYCQSYDSSLSGSVFGGGTKLTVLG
Regarding B1, the values for the binding result in assay [1], in assay [2] and in assay [3] were “no binding (tested: 50 µg/ml)”, “no binding (tested: 1 µg/ml)” and “no binding (tested: 1 µg/ml)”, respectively.

B2: NT-320 IgG type antibody (antibody, V domains shown)
VH: EVQLVESGGGVVQPGKSLRLSCAASGFTFSSYGMHWVRQAPGKGLEWVAVISYPGTNEYYTDSVKGRFTISRDNSKNTLYLQMNSLRAEDTAVYYCARGDIHSGYSFGGGDYGLDVWGQGTTVTVSS
VL: DIQMTQSPSTLSASVGDRVTITCRASQSISGWLAWYQQKPGKAPKLLMYKASSLESGVPSRFSGSGSGTEFTLTISSLQPDDFATYYCQQYNNFPWTFGQGTKVEFK
On to B2, for which, in assay [1], the binding result is “no binding (tested: 50 µg/ml)”.

B3: BT-015 IgG type antibody (antibody, V domains shown)
VH: QVQLQQSGAEVKKPGASVKVACKASRYNFSAYYMHWVRQAPGQGPEWMGWINPHSGVTTYAQKFQGRVTMTRDTSIGTAYMELSRLRSDDTALYYCARGFGSSCSDTSCSFSGLDVWGQGTTVTVSS
VL: QSALTQPASVSGSPGQSITISCTGTSSDVGGYDYVSWYQQHPGEAPKLLIYDVTNRPSGVSSRFSGSKSGNTASLTISGLQPEDEADYYCTSYTSSVTYVFGSGTTLTVLS
Regarding B3, the figures for the binding result in assay [1] and in assay [3] were “no binding (tested: 50 µg/ml)” and “no binding (tested: 1 µg/ml)”, respectively.

B4: NT-539 IgG type antibody (antibody, V domains shown)
VH: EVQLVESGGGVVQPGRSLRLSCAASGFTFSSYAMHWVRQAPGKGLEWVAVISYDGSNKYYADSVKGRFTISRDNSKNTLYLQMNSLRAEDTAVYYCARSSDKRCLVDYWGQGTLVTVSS
VL: DIQMTQSPSAVSASLGDRVTITCRASQGINPFLAWFQQKPGKVPERLIYTASRLQSGVPSRFSGSGTGTEFNLTISSLHPEDFATYYCLQHKHYPWTFGQGTKVERK
Consider B4, for which the values for the binding result in assay [1] and in assay [3] were “no binding (tested: 50 µg/ml)” and “no binding (tested: 10 µg/ml)”, respectively.

B5: BT-175 IgG type antibody (antibody, V domains shown)
VH: QITLKESGPTLVKPTQTLTLTCTFSGFSLRTSGVGVGWIRQPPGKAPEWLALIYWDGDKRFSPSLKSRLTINKDISKNQVVLTLTNLDPVDTGTYYCAHSFYHGSQSPGWFDPWGQGTLVTVSS
VL: QSVLTQPPSVSAAPGQKVTISCSGSSSNIGNNYVSWYQQLPGTAPKLLIYDNNKRPSGIPDRFSGSKSGTSATLGITGLQTGDEADYYCGTWDSSLSAVFGGGTKLTVLG
With B5, the binding result in assay [1] is given as “no binding (tested: 50 µg/ml)”; in assay [2], “no binding (tested: 1 µg/ml)”.
